The assay addresses human Bcl-xL (residues 1-209, lacking the C-terminal hydrophobic tail) (human, UniProt Q07817-1 1-209, 15N-labelled where it was the observed protein). Nature of the assay: NMR titration; 15N-Bcl-xL titrated with unlabeled cytochrome c up to Bcl-xL:cytochrome c 1:10, 1H-15N HSQC; Kd from weighted average chemical shift variations; 300 K; 50 mM sodium phosphate pH 7.3, 150 mM NaCl, 1 mM DTT, 10% D2O. Conditions: both partners purified.

Chain of human Bcl-xL (residues 1-209, lacking the C-terminal hydrophobic tail) (Q07817 1-209): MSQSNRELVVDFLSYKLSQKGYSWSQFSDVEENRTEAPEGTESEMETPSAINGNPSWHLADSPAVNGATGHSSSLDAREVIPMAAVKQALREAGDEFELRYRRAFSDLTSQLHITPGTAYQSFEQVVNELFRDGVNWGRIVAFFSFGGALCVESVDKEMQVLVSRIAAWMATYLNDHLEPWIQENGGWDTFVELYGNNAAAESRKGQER

B1: human cytochrome c (natural protein)
chain: not shown
modifications: heme, iron(II) (reduced) form; 15N-labelled where it was the observed protein
notes: cytochrome c, human, full length; also called reduced cytochrome c; source: expressed and purified as reported in the literature [36]; unlabeled and 15N-labeled form
The Kd is the constant that tells how readily two partners part at equilibrium. B1: the Kd was 1000 to 3000 µM.

These data come from publication PMC3080137, “The Anti-Apoptotic Bcl-xL Protein, a New Piece in the Puzzle of Cytochrome C Interactome” (PLoS ONE, 2011).
